# Test results published in article PMC6336718.
# Key:
# [1] = target: Bacillus anthracis zinc uptake regulator protein (BaZur) (Bacillus anthracis (Sterne 34F2)); assay: native gel or EMSA
# [2] = target: Bacillus anthracis zinc uptake regulator protein (BaZur) (Bacillus anthracis (Sterne 34F2)); assay: SEC; […] (50 mM Tris HCl pH 8.0, 150 mM NaCl, 5% glycerol), […]
substance,measurement,setting,value
Bacillus anthracis zinc uptake regulator protein (BaZur) (natural protein),stoichiometry N,[1],2
same,stoichiometry N,[2],2
